Test results: the supplement of paper PMC7877785
± gives the uncertainty stated by the source.

Assay: self-splicing fitness, log relative to wild type (ln ratio); higher = more splicing; Tetrahymena group I intron in knt gene, E. coli kanamycin selection, DiMSum; sequences stand for … in CUCUCU…GGAGGGAAAAGUUAUCAGGCAUGCACCUGGUAGCUAGUCUUUAAACCAAUAGAUUGCAUCGGUUUAAAAGGCAAGACCGUCAAAUUGCGGGAAAGGGGUCAACAGCCGUUCAGUACCAAGUCUCAGGGGAAACUUUGAGAUGGCCUUGCAAAGGGUAUGGUAAUAAGCUGACGGACAUGGUCCUAACCACGCAGCCAAGUCCUAAGUCAACAGAUCUUCUGUUGAUAUGGAUGCAGUUCACAGACUAAAUGUCGGUCGGGGAAGAUGUAUUCUUCUCAUAAGAUAUAGUCGGACCUCUCCUUAAUGGGAGCUAGCGGAUGAAGUGAUGCAACACUGGAGCCGCUGGGAACUAAUUUGUAUGCGAAAGUAUAUUGAUUAGUUUUGGAGUACUCGUGGUCG
In short: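 Pooled colonies went to amplicon sequencing on an Illumina HiSeq 2500 after six replicate transformations. The plates were LB agar with 100 μg/mL carbenicillin, 50 μM IPTG and 0.2% rhamnose, with or without 25 μg/mL kanamycin, incubated overnight at 37°C or 30°C. The E. coli BL21(DE3) library had all eight P1ex-region intron nucleotides randomised, the intron placed in the knt kanamycin-resistance gene on pET-22b(+). DiMSum fitness is the error-weighted combination of replicate fold changes, kanamycin against none, normalised to wild type.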

Sequence | self-splicing fitness (ln) (30 °C) | self-splicing fitness (ln) (37 °C)
CAGCAGCAAUAUUACGGAGU | -3.15 ± 0.12 | -2.49 ± 0.15
CAGCAGCAAUAUUACGGGCC | -3.41 ± 0.3 | -2.78 ± 0.24
CAGGAGCAAUAUUACGACCG | 0.66 ± 0.2 | 0.00703 ± 0.17
CAGGAGCAAUAUUACGACUC | -2.74 ± 0.11 | -2.14 ± 0.15
CAGGAGCAAUAUUACGAGCC | -2.71 ± 0.29 | -2.44 ± 0.49
CAGGAGCAAUAUUACGAGCG | -1.04 ± 0.13 | 0.24 ± 0.11
CAGGAGCAAUAUUACGCACU | -2.54 ± 0.5 | -1.2 ± 0.34
CAGGAGCAAUAUUACGCAGA | -2.76 ± 0.33 | -2.29 ± 0.2
CAGGAGCAAUAUUACGCCAG | -2.75 ± 0.32 | –
CAGGAGCAAUAUUACGCGCC | – | -2.5 ± 0.26
CAGGAGCAAUAUUACGCGGA | -2.78 ± 0.25 | –
CAGGAGCAAUAUUACGCGGU | – | -3.29 ± 0.47
CAGGAGCAAUAUUACGCUCU | -3.36 ± 0.26 | -2.41 ± 0.26
CAGGAGCAAUAUUACGCUGC | -4.3 ± 0.36 | -2.82 ± 0.36
CAGGAGCAAUAUUACGGCGG | -0.542 ± 0.074 | -0.0448 ± 0.091
CAGGAGCAAUAUUACGGGAC | -2.88 ± 0.25 | -3.24 ± 0.29
CAGGAGCAAUAUUACGGGUA | -4.12 ± 0.42 | -3.31 ± 0.35
CAGGAGCAAUAUUACGGUGU | -3.1 ± 0.15 | -2.66 ± 0.2
CAGGAGCAAUAUUACGGUUU | -3.2 ± 0.41 | –
CAGGAGCAAUAUUACGUAAA | -1.92 ± 0.25 | -1.24 ± 0.31
CAGGAGCAAUAUUACGUGCU | -2.91 ± 0.13 | -2.23 ± 0.14
CAGGAGCAAUAUUACGUUUU | -3.95 ± 0.35 | -2.3 ± 0.23
CAGUAGCAAUAUUACGACAA | -1.98 ± 0.19 | -1.62 ± 0.15
CAGUAGCAAUAUUACGACCU | -0.458 ± 0.15 | -0.391 ± 0.2
CAGUAGCAAUAUUACGCGUG | -2.65 ± 0.18 | -1.86 ± 0.14
CAGUAGCAAUAUUACGCUAG | -2.14 ± 0.1 | -1.34 ± 0.1
CAGUAGCAAUAUUACGCUGU | -2.72 ± 0.17 | -2.99 ± 0.28

Sequence | self-splicing fitness (ln) (30 °C) | self-splicing fitness (ln) (37 °C)
CAGUAGCAAUAUUACGGAGA | -2.32 ± 0.24 | –
CAGUAGCAAUAUUACGGAUC | -3.64 ± 0.43 | -1.48 ± 0.27
CAGUAGCAAUAUUACGGAUU | -2.84 ± 0.17 | -3.21 ± 0.27
CAGUAGCAAUAUUACGGGGG | -3.48 ± 0.33 | -2.02 ± 0.42
CAGUAGCAAUAUUACGGGUG | -0.853 ± 0.06 | -0.398 ± 0.078
CAGUAGCAAUAUUACGUAAG | 0.131 ± 0.069 | -0.159 ± 0.086
CAGUAGCAAUAUUACGUACU | -1.78 ± 0.12 | -1.3 ± 0.1
CAGUAGCAAUAUUACGUAGU | -2.5 ± 0.13 | -2.54 ± 0.18
CAGUAGCAAUAUUACGUAUU | -3.48 ± 0.2 | -1.81 ± 0.2
CAGUAGCAAUAUUACGUCAC | -2 ± 0.25 | –
CAGUAGCAAUAUUACGUCGG | -0.645 ± 0.078 | -0.0434 ± 0.1
CAGUAGCAAUAUUACGUUGU | -4.7 ± 0.28 | -3.14 ± 0.24
CAUAAGCAAUAUUACGACGC | -2.7 ± 0.25 | -0.823 ± 0.19
CAUAAGCAAUAUUACGAGAC | -3.9 ± 0.37 | –
CAUAAGCAAUAUUACGAGAG | -2.88 ± 0.18 | -1.32 ± 0.14
CAUAAGCAAUAUUACGAGCA | -3.98 ± 0.37 | -1.77 ± 0.2
CAUAAGCAAUAUUACGAGGU | -2.81 ± 0.16 | -2.6 ± 0.18
CAUAAGCAAUAUUACGAGUA | -2.34 ± 0.15 | -1.45 ± 0.15
CAUAAGCAAUAUUACGAUCA | -2.28 ± 0.21 | -1.87 ± 0.2
CAUAAGCAAUAUUACGAUGA | -2.58 ± 0.14 | -0.929 ± 0.13
CAUAAGCAAUAUUACGCCUC | -2.88 ± 0.39 | -1.75 ± 0.41
CAUAAGCAAUAUUACGCCUU | -3.7 ± 0.19 | -1.96 ± 0.17
CAUAAGCAAUAUUACGCGUG | -3.79 ± 0.26 | -2.88 ± 0.2
CAUAAGCAAUAUUACGCUAA | -2.58 ± 0.3 | -0.864 ± 0.24
CAUAAGCAAUAUUACGCUAC | – | -1.79 ± 0.21
CAUAAGCAAUAUUACGCUUU | -3.86 ± 0.26 | -2.73 ± 0.24
CAUAAGCAAUAUUACGGCCA | -2.38 ± 0.26 | -2.62 ± 0.29

Sequence | self-splicing fitness (ln) (30 °C) | self-splicing fitness (ln) (37 °C)
CAUAAGCAAUAUUACGGCGA | -1.96 ± 0.18 | -0.178 ± 0.15
CAUAAGCAAUAUUACGGGAA | -2.98 ± 0.21 | -2.23 ± 0.16
CAUAAGCAAUAUUACGUACU | – | -2 ± 0.32
CAUAAGCAAUAUUACGUAUG | -3.87 ± 0.2 | -2.74 ± 0.23
CAUAAGCAAUAUUACGUCAU | -3.67 ± 0.19 | -2.19 ± 0.19
CAUAAGCAAUAUUACGUGCA | -3.45 ± 0.23 | -2.4 ± 0.18
CAUAAGCAAUAUUACGUGGG | -3.38 ± 0.12 | -3.49 ± 0.18
CAUAAGCAAUAUUACGUUGA | -3.55 ± 0.16 | -2.85 ± 0.16
CAUAAGCAAUAUUACGUUUA | -2.97 ± 0.23 | -2.42 ± 0.28
CAUCAGCAAUAUUACGAAGA | -2.97 ± 0.27 | -0.441 ± 0.15
CAUCAGCAAUAUUACGAAGC | -3.23 ± 0.47 | -2.2 ± 0.41
CAUCAGCAAUAUUACGACGA | -1.38 ± 0.16 | -0.863 ± 0.14
CAUCAGCAAUAUUACGAGAC | -3.95 ± 0.23 | -2.73 ± 0.16
CAUCAGCAAUAUUACGAGCU | -1.92 ± 0.26 | -2.3 ± 0.47
CAUCAGCAAUAUUACGAUUC | -1.62 ± 0.071 | -0.269 ± 0.073
CAUCAGCAAUAUUACGCAAC | – | -1.59 ± 0.28
CAUCAGCAAUAUUACGCCUG | -0.718 ± 0.092 | -0.495 ± 0.098
CAUCAGCAAUAUUACGCCUU | -1.92 ± 0.12 | -0.379 ± 0.12
CAUCAGCAAUAUUACGCUCA | -1.55 ± 0.18 | -0.924 ± 0.16
CAUCAGCAAUAUUACGCUUG | -2.08 ± 0.084 | -1.03 ± 0.098
CAUCAGCAAUAUUACGGACG | -0.594 ± 0.053 | -0.172 ± 0.08
CAUCAGCAAUAUUACGGCGC | -2.95 ± 0.13 | -0.694 ± 0.15
CAUCAGCAAUAUUACGGGCG | -0.567 ± 0.069 | -0.377 ± 0.074
CAUCAGCAAUAUUACGGGUC | -2.63 ± 0.11 | -0.644 ± 0.1
CAUCAGCAAUAUUACGGGUU | -1.8 ± 0.067 | -0.61 ± 0.08
